The values below come from US20230049152A1 (Genentech, published 2023).

The target in one assay is T1, human CCR2 (human, UniProt P41597 1-374).
T1 construct: whole, on cells; transiently expressed on HEK293 cells
Nature of the assay: flow cytometry, HEK293 with N-term FLAG-tagged human CCR2. The source says: (§1) FIGS. 4A-4F depicts the binding data of hu.Ab3.H1L1 (FIG. 4A), hu.Ab4.H1L1 (FIG. 4B), and hu.Ab5.H1L1 (FIG. 4C), as well as the commercial anti-CCR8 mAbs murine anti-human CCR8 mAb 433H (BD Biosciences) (FIG. 4D), and murine anti-human CCR8 mAb L263G8 (Biolegend) (FIG. 4E), and the humanized anti-human Yoshida anti-CCR8 mAb (FIG. 4F), to HEK293 cells that were transiently transfected with N-term FLAG-tagged plasmids encoding for human GPCRs (CCR2, CCR3, CCR4, CCR5, CCR8, CXCR4, ACKR2, and ACKR4), hCCR8 constructs, or with a mock construct using transIT X2 (reagent:DNA=3:1).
(§2) To confirm the selectivity to CCR8, the binding of hu.Ab3.H1L1, hu.Ab4.H1L1, and hu.Ab5.H1L1, as well as the Yoshida humanized anti-human CCR8, murine anti-human CCR8 mAb L263G8 (Biolegend, Commercial Ab) and murine anti-human CCR8 mAb 433H (BD Biosciences, Commercial Ab), were characterized by flow cytometry on HEK293 cells that were transiently transfected with plasmids encoding for FLAG-tagged other related human GPCRs (CCR2-5, CXCR4, ACKR2, and ACKR4). Cell surface expression of each GPCR was confirmed by staining with an anti-FLAG antibody control. In particular, HEK293 cells were transfected with N-term FLAG-tagged human CCR2, CCR3, CCR4, CCR5, CXCR4, ACKR2, ACKR4, hCCR8 constructs, or with a Mock construct using transIT X2 (reagent:DNA=3:1) for 24 hours, and surface stained with various anti-hCCR8 monoclonal antibodies at 5 ug/ml, or rabbit anti-Flag pAb (Sigma) followed by AF647-anti-hIgG or AF647-anti-RbIgG respectively. Antibodies hu.Ab4.H1L1, and hu.Ab5.H1L1, only stained the hCCR8-containing cells, confirming their specificity to hCCR8. […] Thus, the CCR8 selective hu.Ab4.H1L1 and hu.Ab5.H1L1 antibodies with the best ADCC activities were carried forward.

Assay [1] has as its target T2, human CCR8 (human, UniProt P51685 1-355). Nature of the assay: cell-based or functional assay.
Assay [2] has as its target T3, human CXCR4 (human, UniProt P61073 1-352).
T3 construct: whole, on cells; transiently expressed on HEK293 cells
Nature of the assay: flow cytometry, HEK293 with N-term FLAG-tagged human CXCR4.
Excerpt: as §1
To confirm the selectivity to CCR8, the binding of hu.Ab3.H1L1, hu.Ab4.H1L1, and hu.Ab5.H1L1, as well as the Yoshida humanized anti-human CCR8, murine anti-human CCR8 mAb L263G8 (Biolegend, Commercial Ab) and murine anti-human CCR8 mAb 433H (BD Biosciences, Commercial Ab), were characterized by flow cytometry on HEK293 cells that were transiently transfected with plasmids encoding for FLAG-tagged other related human GPCRs (CCR2-5, CXCR4, ACKR2, and ACKR4). Cell surface expression of each GPCR was confirmed by staining with an anti-FLAG antibody control. […]

The target of the next assay is T4, human CCR3 (human, UniProt P51677 1-355).
T4 construct: whole, on cells; transiently expressed on HEK293 cells
T4 sequence (looked up): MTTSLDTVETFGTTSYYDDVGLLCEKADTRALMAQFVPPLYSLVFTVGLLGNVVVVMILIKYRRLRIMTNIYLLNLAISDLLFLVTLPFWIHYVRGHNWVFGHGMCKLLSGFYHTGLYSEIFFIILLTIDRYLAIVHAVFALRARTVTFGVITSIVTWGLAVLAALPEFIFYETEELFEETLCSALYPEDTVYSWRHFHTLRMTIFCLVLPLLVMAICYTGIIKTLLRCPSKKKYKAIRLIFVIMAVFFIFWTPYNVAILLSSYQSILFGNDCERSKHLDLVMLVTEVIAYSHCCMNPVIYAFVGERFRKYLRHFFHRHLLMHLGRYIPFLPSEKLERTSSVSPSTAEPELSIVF
Nature of the assay: flow cytometry, HEK293 with N-term FLAG-tagged human CCR3, procedure of FIG. 4.
Excerpt: as §2
(§3) To reconfirm that the Ab4 and Ab5 variants remained selective to CCR8 compared to the corresponding HIL1 variants, binding was analyzed by flow cytometry following the procedure as described for FIG. 4A and FIG. 4B. […]
A general note: In flow cytometry, cells or beads pass a laser one at a time.

Assay [3] concerns the target T2, human CCR8. Put plainly: radioligand competition on CHO cells stably expressing human CCR8: fixed 125I-anti-CCR8 against serially diluted unlabelled antibody. The method, then:
(§4) Cell-based affinity measurements were performed using radiolabeled IgGs and CHO cell lines stably expressing human or cyno CCR8 for hu.Ab5.H13L1 and hu.Ab4.H12L3.
(§5) Briefly, stable CHO cells expressing human or cyno CCR8 were seeded in cold binding buffer (Opti-MEM+2% FBS+50 mM HEPES, pH 7.2+0.1% Sodium Azide) at 50,000 cells per well. A fixed concentration of ¹²⁵I-anti-CCR8 radiolabeled using the NEX244 Iodogen method (Perkin Elmer) was mixed with serially diluted anti-CCR8 antibodies starting at 20 nM or 50 nM. The antibody mixture was added to the cells and incubated at room temperature for 12 hours under gentle agitation. The cells and antibodies were then transferred to Millipore multiscreen filter plates. The filter plates were washed 4 times with 250 μL of cold binding buffer and dried for at least 30 minutes and the filters were punched into 5 mL polystyrene tubes. The radioactivity was measured using a Perkin Elmer Wallac Wizard 2470 Gamma Counter set at 1 count per minute with 0.8 counting efficiency. The data were fitted using the heterologous one site-fit Ki competitive binding model in GraphPad Prism.
In general terms: Loss of bound radioactivity is the signal in a displacement assay; it reports binding, not function.

Another assay addresses T5, GST-FcgR3a.V158 (UniProt P08637 17-208, limits assumed).
T5 construct: Captured by anti-GST antibody on ELISA plate; also called FcgR3a.V158 protein; Fcgamma RIIIa V158; not shown: GST tag
Put plainly: ELISA, GST-FcgR3a.V158 captured by anti-GST antibody. The method, then: The binding of fucosylated and afucosylated variants of hu.Ab5.H13L1 and hu.Ab4.H12L3 to both FcgR3a proteins by ELISA was studied. Briefly, an anti-GST antibody was coated on Nunc Maxisorp plates. GST-FcgR3a.V158 and GST-FcgR3a.F158 were captured at 500 ng/mL. Plates were then washed and then serially diluted anti-CCR8 antibodies starting at 100 ug/mL were incubated on the plate for 1 hour at room temperature. Plates were washed and bound antibody was detected by a HRP-conjugated anti-human IgG secondary antibody. Absorbance at 450 nm was measured by a plate reader. The data were fitted using a 4-parameter logistic curve in Softmax Pro.
A general note: In an ELISA, binding on a coated surface is turned into a signal by an enzyme label.

In assay [4] the target is T3, human CXCR4. Put plainly: flow cytometry, HEK293 with N-term FLAG-tagged human CXCR4, procedure of FIG. 4.
Excerpt: as §2, §3

The target of a further assay is T6, cyno CCR8 (cynomolgus monkey, UniProt O97665 1-356 (rhesus entry)).
T6 construct: also called cynomolgus monkey CCR8
Nature of the assay: radioligand competition, 125I-labelled IgG versus unlabelled IgG on CHO cells stably expressing cyno CCR8. The method, then: as §4, §5

Where a chain is given by its changes, count along the chain named.

T3 sequence (P61073 whole entry): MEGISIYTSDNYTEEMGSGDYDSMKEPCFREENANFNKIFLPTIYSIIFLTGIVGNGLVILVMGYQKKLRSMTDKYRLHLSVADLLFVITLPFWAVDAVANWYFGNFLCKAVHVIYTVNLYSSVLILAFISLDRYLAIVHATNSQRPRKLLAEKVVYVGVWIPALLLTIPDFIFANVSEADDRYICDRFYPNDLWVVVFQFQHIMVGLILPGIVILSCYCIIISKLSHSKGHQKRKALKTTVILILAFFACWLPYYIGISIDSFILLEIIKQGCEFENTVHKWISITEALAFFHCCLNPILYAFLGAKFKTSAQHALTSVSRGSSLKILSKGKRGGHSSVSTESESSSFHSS
T5 sequence (P08637 17-208 F176V limits assumed): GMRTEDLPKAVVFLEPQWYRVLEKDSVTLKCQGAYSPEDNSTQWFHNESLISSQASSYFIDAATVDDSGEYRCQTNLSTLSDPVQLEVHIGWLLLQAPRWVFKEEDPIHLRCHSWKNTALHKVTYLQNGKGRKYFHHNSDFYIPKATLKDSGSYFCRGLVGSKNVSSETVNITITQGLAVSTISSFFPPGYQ
T6 sequence (O97665 other isoform, or with tags, fused parts or gaps): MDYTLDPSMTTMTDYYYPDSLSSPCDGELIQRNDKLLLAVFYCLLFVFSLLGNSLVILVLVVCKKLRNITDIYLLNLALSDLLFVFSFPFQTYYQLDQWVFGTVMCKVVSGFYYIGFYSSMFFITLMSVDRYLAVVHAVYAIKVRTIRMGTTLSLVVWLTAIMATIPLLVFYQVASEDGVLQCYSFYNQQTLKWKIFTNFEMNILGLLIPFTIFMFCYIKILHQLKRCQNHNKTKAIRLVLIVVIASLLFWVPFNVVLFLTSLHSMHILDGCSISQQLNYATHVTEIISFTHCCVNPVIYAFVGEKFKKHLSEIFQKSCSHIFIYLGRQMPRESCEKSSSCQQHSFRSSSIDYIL
T1 sequence (P41597 whole entry): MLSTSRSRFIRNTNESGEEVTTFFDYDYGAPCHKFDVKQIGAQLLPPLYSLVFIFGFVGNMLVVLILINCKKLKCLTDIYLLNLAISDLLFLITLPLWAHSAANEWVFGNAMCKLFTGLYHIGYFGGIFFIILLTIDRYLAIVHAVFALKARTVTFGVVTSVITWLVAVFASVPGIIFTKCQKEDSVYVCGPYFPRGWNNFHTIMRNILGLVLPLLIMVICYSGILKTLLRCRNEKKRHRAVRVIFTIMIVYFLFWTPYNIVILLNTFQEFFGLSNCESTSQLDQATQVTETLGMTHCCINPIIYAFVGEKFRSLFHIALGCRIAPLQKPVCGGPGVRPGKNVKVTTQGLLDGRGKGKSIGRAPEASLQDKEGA

B1: hu.Ab4.H1L1 (antibody, human IgG1, kappa)
heavy: not shown
light: DYQMTQSPSSLSASVGDRVTITCQASQSISSYLSWYQQKPGKRPKLLIYKASTLASGVPSRFSGSGSGTDFTLTISSLQPEDFATYYCQQGYTSSNIDNIFGGGTKVEIKRTVAAPSVFIFPPSDEQLKSGTASVVCLLNNFYPREAKVQWKVDNALQSGNSQESVTEQDSKDSTYSLSSTLTLSKADYEKHKVYACEVTHQGLSSPVTKSFNRGEC
notes: also called hu.Ab4.H1Ll
On to B1, for which the binding result with human CCR2 and with human CXCR4 [2] was “no binding (tested: 5 ug/ml)” each time. Also, in the assay with human CCR8 [1], the “ADCC EC50, NK-92_F158 effector cells, calcein release” value was 0.08 nM.

B2: hu.Ab4.H12L3 (antibody, human IgG1, kappa)
heavy: not shown
light: B1 light with R43A
notes: fucosylated human IgG1; also called huCCR8-Ab4.H12L3.hIgG1; Ab4 variant
Take B2: the binding result with human CCR3 and with human CXCR4 [4] was “no binding (tested: 5 ug/ml)” each time. Also, in the assay with human CCR8 [3], the “IC50 (read off the curve)” value is roughly 0.1 nM. A half-maximal effect with GST-FcgR3a.V158 (EC50) was put at 0.388 µg/mL. Besides, in the assay with cyno CCR8, the Kd (as a rule, the constant that tells how readily two partners part at equilibrium) is 0.0243 nM.

B3: hu.Ab5.H1L1 (antibody, human IgG1, kappa)
heavy: not shown
light: DIQVTQSPSSLSASVGDRVTITCQASENIANALAWYQQKPGKPPKFLIYGASNLASGVPSRFSGSGSGTDFTFTISSLQPEDIATYYCQQAYYGNSFVEGTFGGGTKVEIKRTVAAPSVFIFPPSDEQLKSGTASVVCLLNNFYPREAKVQWKVDNALQSGNSQESVTEQDSKDSTYSLSSTLTLSKADYEKHKVYACEVTHQGLSSPVTKSFNRGEC
For B3, the binding result with human CCR2 and with human CXCR4 [2] was “no binding (tested: 5 ug/ml)” throughout. Further, the “ADCC EC50, NK-92_F158 effector cells, calcein release” value with human CCR8 [1] is 0.02 nM.

B4: hu.Ab5.H13L1 (antibody, human IgG1, kappa)
heavy: not shown
light: B3 light
notes: fucosylated human IgG1; also called Ab5 variant
Take B4: the binding result in the assay with human CCR3 and with human CXCR4 [4] was “no binding (tested: 5 ug/ml)” throughout. Moreover, the “IC50 (read off the curve)” value with human CCR8 [3] was roughly 0.05 nM. The EC50 (commonly the concentration needed to bring the measured effect to its halfway point) in the assay with GST-FcgR3a.V158 amounted to 0.39 µg/mL. For the same molecule, the Kd with cyno CCR8 is 0.0034 nM.
